Assay results reported in paper PMC12207370, “Macrocyclic Peptide Probes for Immunomodulatory Protein CD59: Potent Modulators of Bacterial Toxin Activity and Antibody‐Dependent Cytotoxicity” (Angewandte Chemie (International Ed. in English), 2025).

Target: T1, biotinylated CD59 (Homo sapiens, UniProt P13987)
T1 construct: Recombinant soluble human CD59 with an additional C-terminal cysteine residue
T1 sequence (P13987 26-102 limits assumed): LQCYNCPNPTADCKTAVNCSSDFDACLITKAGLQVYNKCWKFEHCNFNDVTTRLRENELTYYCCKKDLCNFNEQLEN
Experiment: mRNA-display cyclic peptide screen against CD59-biotin, NGS abundance after 6th selection round
Settings: for Percentage Seq I: counts normalised by total counts of sample Seq I; for Percentage Seq I / Percentage Seq II: percentage of the pool; for Percentage Seq I / Percentage Seq II / Percentage Average / Percentage of the pool, averaged across the two sequencing samples / Percentage of the pool, Seq I / Percentage of the pool, Seq II: sheet R6; for Percentage Seq II: counts normalised by total counts of sample Seq II; for Percentage Average: percentage of the pool averaged across the two sequencing samples; for Counts Seq I / Counts Seq II: raw NGS counts of peptide sequence; for Counts Seq I: sequencing sample Seq I; for Counts Seq I / Counts Seq II / Counts (raw counts for peptide sequence), Seq I / Counts (raw counts for peptide sequence), Seq II: sheet R6 (6th selection round); for Counts Seq II: sequencing sample Seq II; for Counts (raw counts for peptide sequence), Seq I: NGS sample Seq I; for Counts (raw counts for peptide sequence), Seq II: NGS sample Seq II; for Percentage of the pool, averaged across the two sequencing samples: average of Seq I and Seq II; for Percentage of the pool, Seq I: counts normalised by total counts of NGS sample Seq I; for Percentage of the pool, Seq II: counts normalised by total counts of NGS sample Seq II
How it was run: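 Peptide–mRNA fusions were made by in vitro translation with a customised PURE express kit. The kit lacked release factor 1 and methionine and was supplemented with […] initiator tRNA carrying N-chloroacetyl-d-tyrosine. Thioether macrocycles were formed, then enriched and amplified over iterative rounds on CD59-biotin immobilised on streptavidin beads. NGS read counts per sequence were recorded after the 6th selection round.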

Sequence	Percentage Seq I	Percentage Seq II	Percentage Average	Counts Seq I	Counts Seq II	Counts (raw counts for peptide sequence), Seq I	Counts (raw counts for peptide sequence), Seq II	Percentage of the pool, averaged across the two sequencing samples	Percentage of the pool, Seq I	Percentage of the pool, Seq II
FIFGNRNWTFG	0.021%	0.021%	0.021%	94	9	–	–	–	–	–
FIRGDSTSVLF	–	–	–	–	–	54	6	0.013%	0.012%	0.014%
FIRGNSTSVLC	–	–	–	–	–	36	5	0.010%	0.008%	0.012%
FIRGNSTSVLF	1.617%	1.838%	1.728%	7076	792	–	–	–	–	–
FIRGNSTSVLFAAAAAAARTGGG	–	–	–	–	–	40	7	0.013%	0.009%	0.016%
FIRGNSTSVLFLRQRQRQLGRGAE	0.060%	0.072%	0.066%	264	31	–	–	–	–	–
FIRGNSTSVLY	–	–	–	–	–	58	8	0.016%	0.013%	0.019%
FIRGNSTSVPF	–	–	–	–	–	46	4	0.010%	0.011%	0.009%
FISGSRSWRKQ	0.036%	0.023%	0.030%	159	10	–	–	–	–	–
FITGNRDHTRG	0.018%	0.026%	0.022%	78	11	–	–	–	–	–
FKYGNSNFVRG	0.035%	0.039%	0.037%	154	17	–	–	–	–	–
FQRGTRSTSWG	0.054%	0.035%	0.045%	238	15	–	–	–	–	–
FQYFGTGIAFG	0.301%	0.325%	0.313%	1316	140	–	–	–	–	–
FRGRNDICTH	–	–	–	–	–	73	8	0.018%	0.017%	0.019%
FTRGNSTSVLF	–	–	–	–	–	51	7	0.014%	0.012%	0.016%
FVAGNRDHTRG	0.023%	0.016%	0.020%	102	7	–	–	–	–	–
FVFGNRHFRTE	0.408%	0.492%	0.450%	1785	212	–	–	–	–	–
FVLGNRHTIVG	–	–	–	–	–	57	6	0.013%	0.013%	0.014%
FVMGNRDHTRG	0.017%	0.023%	0.020%	76	10	–	–	–	–	–
FVRGDLHSVLG	0.058%	0.044%	0.051%	253	19	–	–	–	–	–
FVRGDLNSVLG	–	–	–	–	–	69	5	0.014%	0.016%	0.012%
FVRGDLYPVLG	–	–	–	–	–	65	5	0.013%	0.015%	0.012%
